The values that follow come from patent US20250296984A1, “THERAPEUTIC AND DIAGNOSTIC AGENTS AND USES THEREOF” (priority 2022, published 2025).

In one experiment the target is Peptide 3 ([…]) (Human cytomegalovirus, UniProt P69332). The experiment can be described thus: HuProt Human Proteome Microarray, control peptide. It counts as binding, HCMV. From the text: The HuProt™ Human Proteome Microarray provides the largest number of unique, full-length, individually purified human proteins on a single microscope slide. It provides >21,000 unique human proteins, isoform variants, and protein fragments—covering 16,794 unique genes. This includes 15,889 of the 19,613 canonical human proteins described in the Human Protein Atlas, with broad coverage across protein subclasses. This allows thousands of interactions to be profiled in a high-throughput manner. The full-length recombinant proteins are expressed in the yeast S. cerevisiae, purified, and printed on glass slides in duplicate along with a set of control proteins (GST, BSA, histones, IgG, etc.). The full list of the different proteins included in the HuProt™ Human Proteome Microarray as used in this Example is provided as “List B” in the Research Disclosures publication (ISSN 0374-4353, Questel Ireland Ltd) with database numbers 707018, 707019 and 707020, each entitled “Large scale protein arrange target protein identities” and each digitally published on 27 Jan. 2023, the contents of each of which are incorporated herein by reference in their entirety, fo the purposes of the disclosure of the proteins defined by “List B”. “List B” begins in Research Disclosures publication 707018, is continued in Research Disclosures publication 707019, and concludes Research Disclosures publications 707020, and so the three publications are to be read consecutively as a single disclosure of the “List B” proteins. The HuProt™ microarray is not restricted to a particular type of surface coating, although the default is glass coated with ultrathin nitrocellulose film for the non-covalent, yet irreversible, capture of active proteins to the surface.
Samples of humanised 7B1F3 and mouse 7B1F3 antibodies were analysed for binding specificities on HuProt™ human proteome arrays. A peptide with the sequence TDVLNQSKPVTL (“Peptide 3”) was added to the arrays at 0.1 mg/ml as a control.
After blocking, the arrays were probed with the antibody samples (0.1 μg/ml) at room temperature for 1 hour. Then the arrays were washed with TBST for 10 min×3 and probed with Alexa647-anti-human IgG Fc or Alexa647-anti-mouse IgG secondary antibodies under conditions optimized by CDI Labs for signal detection.
• Non-specific hits that directly bind to the secondary antibodies were eliminated from the analysis of the samples. • CDI software was used to quantify the specificity of each individual sample to specific proteins on the array based on Z Scores. • Z score is the average Z score of the duplicate spots of a given protein (each protein is printed in duplicate on a HuProt™ array). The Z score of each spot on a given array is calculated according to the algorithm below:
Z=[F635−F635(avg)]/F635(std) • F635(avg) and F635(std) are the average and standard deviation of the F635 values of all spots on the array, respectively. • S score is the difference of the Z Scores of a given protein and the one ranked next to it. If the S score of the top hit is >3, the antibody is considered to be highly specific for the top hit. • F635 is the average foreground signal intensity of 2 replicate spots of a given protein in the detection channel (635 nm). • B635 is the average background signal intensity of 2 replicate spots of a given protein in the detection channel (635 nm).

Experiment [1] deals with human primary cells (adrenal cortical, kidney epithelial, cardiac microvascular endothelial, liver epithelial, vein smooth muscle). The experiment can be described thus: FACS off-target binding to human primary cells. To be noted: FIG. 19 A. How it is done:
Primary cells from different tissue origin were cultured in T25 flasks coated with 3 mL Gelatin-Based Coating Solution (Cellbiologeics, 6950) and placed at 37° C. for 1h. Excess solution was aspirated before cell seeding. 15 mL centrifuge tube were prepared with 6 mL preheated complete medium. Primary cells stored in liquid nitrogen were quickly thawed in 37° C. water bath for <1 min, and transferred to the 15 mL centrifuge tube. Cells were centrifuged at 1000 rpm for 5 minutes, before aspirating the supernatant and resuspending the cell pellet in 6 mL complete medium. Resuspended cells were added into the pre-coated T25 flask, and incubated in a humidified incubator at 37° C. with 5% CO2. […]
Flowcytometry was used to analyze cell surface binding by the US28 antibodies. Upon cell harvest, adherent non-infected and US28 overexpressing or HCMV infected cells were washed three times with cell staining buffer (phosphate-buffered saline (PBS (Amresco, Cleveland, 44139, USA) added 0.5% BSA and 0.05% Sodium Azide (NaN3)). The cells were trypisinized and then resuspended in DMEM with 10% FBS to inhibit the action of trypsin. The cells were then pelleted at 400×g for 10 minutes and washed three times in cell staining buffer. Cell viability and cell concentration were measured by tryphan blue viability assay and a cell counter (Countess, Invitrogen, Carlsbad, CA 92008, USA). […]

Where [2] appears, read: Table 9, top hit Peptide 3, antibody 0.1 μg/ml.

B1: 7B1F3: mouse IgG1 kappa antibody against US28 ECD1 Peptide-N; VH SEQ ID NO: 211, VL SEQ ID NO: 213 (antibody, V domains shown)
VH: EVQLQQSGAELAKPGASVKMSCKASGYTFTNYWMHWVKQRPGQGLEWIGYVNPRTGYTEYNQKFKDKATLTADKSSRTAYMQLSSLTSEDSAVYSCARILNGTGFAYWGQGTLVTVSA
VL: DIVLTQSPSSLTVSVGEKFTMSCKSSQSLLYSSNQKNYLAWYQQKPGQSPKLLIYWASTRESGVPDRFTGSGSGTDFTLAISSVKPEDLAIYYCQQYYSFPLTFGAGTKLEIK
modifications: Mature form of VH sequence of 7B1F3, without the leader sequence; Mature form of VL sequence of 7B1F3, without the leader sequence
Take B1: in the experiment with Peptide 3 ([…]) (Protein: Peptide 3), the “S Score” value came out at 116.095 and the “Z Score” value stood at 145.092. In the experiment with Peptide 3 ([…]) (Protein: Peptide 3, antibody 0.1 μg/ml), this molecule gave an F635 of 49972. In addition, in the experiment with Peptide 3 ([…]) (Table 9, antibody 0.1 μg/ml), the “Peptide 3 Signal” value is listed as 49972 and the “Top Hit” value is on record as “Peptide 3”. In addition, in the experiment with Peptide 3 ([…]) (setting [2]), the “S Score” value turned out to be 116.095 and the “Z Score” value was found to be 145.092. In the experiment with Peptide 3 ([…]) (Table 9, top hit, 65535 is the saturation signal intensity), this molecule had a Signal of 49972.

B2: 13-5G6-1D3: mouse monoclonal IgG1 kappa antibody against US28 ECD3; VH SEQ ID NO: 12, VL SEQ ID NO: 18 (antibody, V domains shown)
VH: EVKLVESGGGLVQPGGSLRLACATSGFTFTDYYMSWVRQPPGKALEWLGFIRSKANGYTTEYSASVKGRFTISRDNSQSILYLQMNTLRSEDSATYYCARDERRTAWLAYWGQGTLVTVSA
VL: DVLMTQTPLSLPVSLGDQASISCRSSQSIVHSNGNTYLDWYLQKPGQSPKLLIYKVSNRFSGVPDRFSGSGSGTDFTLKISRVEAEDLGVYYCFQGSHVPTWTFGGGTKLEIK
modifications: Mature form of VH sequence of 1D3, without the leader sequence; Mature form of VL sequence of 1D3, without the leader sequence
B2: in experiment [1], the “surface binding on human primary cells” value is on record as less than 1%.
